According to PMC12510028, “A biophysical and molecular characterization of the interaction between the Alzheimer risk factor BIN1 and the neuronal scaffold protein p140Cap” (The Journal of Biological Chemistry, 2025):

Experiments:
BIN1 SH3 domain = biological target: T1, BIN1 SH3 domain (Homo sapiens, UniProt O00499); test: SPR equilibrium affinity of peptides for biotinylated BIN1-SH3 domain; assay type: binding; conditions: for binding to BIN1-SH3 in words: SPR, tested analyte concentrations 0.6–75 μM; for Kd: SPR Biacore S200, Biotin CAPture chip, Avi-BIN1-SH3 immobilised as ligand, peptide as analyte, reference cell CTX-M-14 subtracted, 25 °C, PBS-P+, steady-state 1:1 fit, mean ± SD of three technical replicates, p140Cap peptides tested 0.6–75 μM
T1 construct: His (N); made in house; host or cells: E. coli BL21 (DE3)
T1 sequence (O00499 520-593 limits assumed): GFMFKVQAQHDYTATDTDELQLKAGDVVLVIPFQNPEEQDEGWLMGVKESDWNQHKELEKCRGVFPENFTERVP
Procedure: We undertook a candidate approach to identify biologically relevant neuronal proteins that interact with BIN1’s SH3 domain (Fig. 1A). First, we referenced published KD calculations for several BIN1 SH3 domain ligands ([45]), setting a KD cut-off at <10 μM for our study. Then, we obtained a published index of potential protein interactors from a study that computationally predicted the top 100 peptide binding partners for each of 70 human SH3 domains, generated by SH3PepInt, an alignment-free, graph kernel-based tool ([46]). We curated the predicted BIN1 SH3-binding proteins using a set of criteria to ensure: 1) neuronal expression, 2) subcellular localization at the synapse, and 3) molecular functions relevant to neuronal BIN1 in neurotransmitter vesicle dynamics ([25]). We then utilized available protein structures in the Protein Data Bank or those predicted by AlphaFold to confirm the accessibility of each putative SH3-binding site within the full-length protein, prioritizing peptides known to adopt the left-handed polyproline-II helix. From these analyses, we nominated 10 proteins for an initial screening using 14-mer peptides in surface plasmon resonance (SPR) analysis (Fig. 1B). The purified Avi-tagged BIN1 SH3 domain was immobilized as the ligand on flow cell 2, while a nonbinding control protein was immobilized on flow cell 1 (Fig. S1). Subsequently, each peptide was injected in solution over the sensor surface as the analyte (Fig. 1B). To correct for nonspecific binding, response units from flow cell 1 were subtracted from those of flow cell 2 to determine the KD.
The ^1033KPSKSPPPPPPRRS^1046 p140Cap peptide harbors three canonical PRMs: class I, ^1036KSPPPPP^1042; class IIa, ^1038PPPPPRR^1045; and class IIb, ^1037PPPPPPR^1044 (Fig. 2A). […] Thus, we used SPR in combination with alanine-scanning mutagenesis to determine which of the three class motifs on p140Cap mediates binding to BIN1’s SH3 domain. We synthesized 14-mer peptides with alanine substitutions at either the basic residues alone or in combination with the corresponding prolines for all three canonical PRM classes. We also synthesized 7-mer peptides containing the native core motif for cross-referencing (Fig. 2B). […] We reasoned that alanine substitution of residues not involved in BIN1-SH3 binding would produce similar, if not identical, KDs to the native 14-mer peptide. […] Thus, we would be able to identify the precise motif responsible for facilitating the BIN1–p140Cap interaction.
All experiments were conducted using the Biacore S200 (GE Healthcare), equipped with a series S Biotin Capture chip (Cytiva Life Sciences) at 25 °C in 1X PBS-P + [0.2 M phosphate buffer with 27 mM KCl, 1.37 M NaCl, and 0.5% surfactant P20 (Tween 20)] running buffer. The chip surface was first conditioned with three 1-min injections of regeneration solution (3:1 8 M guanidine-HCl: 1 M NaOH) immediately after docking. Biotin CAPture reagent (50 μg/ml in HBS-EP buffer [0.01 M Hepes (pH 7.4), 0.15 M NaCl, 3 mM EDTA, 0.005% surfactant P20]), 3.4 ml) was immobilized on the chip surface at a flow rate of 2 μl/min for 5 min prior to ligand immobilization. Affinity run assays were conducted by immobilizing 50 μg/ml Avi-BSH3 (12 kDa, >90% pure based on SDS-PAGE) diluted in 1X PBS-P+ running buffer at 5 ul/min for 60 s on a streptavidin-coated matrix on flow cell 2. Additionally, 50 μg/ml Avi-tagged nonbinding protein (CTX-M-14 β-lactamase, 30 kDa, >90% pure based on SDS-PAGE) diluted in 1X PBS-P+ running buffer was immobilized at 5 μl/min for 60 s on flow cell 1 to serve as a reference surface for subtraction of bulk refractive index background. To collect affinity data, the analytes were diluted in running buffer and injected over the two flow cells in serial dilution at a flow rate of 30 μl/min. The complexes were allowed to associate and dissociate for 30 s and 300 s, respectively. The surfaces were then regenerated with three 60 s injections of regeneration solution. […]

[1] = biological target: Avi-tagged BIN1 SH3 domain (human) (UniProt O00499); test: SPR; Biacore S200, Biotin CAPture chip; biotinylated Avi-BIN1-SH3 captured on flow cell 2, Avi-tagged CTX-M-14 β-lactamase on reference flow cell 1; peptides injected as analytes at 30 μl/min; 25 °C, 1X PBS-P+; steady-state analysis, 1:1 model
nsP3 (Chikungunya virus) = nsP3 (Chikungunya virus) (UniProt Q8JUX6); conditions: cited from earlier work
[2] = biological target: GST-tagged BIN1-SH3 domain MutK (K30R, rs138047593) (human); test: pull-down; 25 μg GST or GST-BSH3 (WT or mutant) on glutathione-Sepharose with 0.5 mg of 1% Triton X-100 soluble mouse brain homogenate, 2 h at room temperature; washes with 50 mM KCl, 150 mM NaCl, 1.5% IGEPAL; immunoblot for p140Cap and total tau
[3] = biological target: T2, Avi-tagged BIN1 SH3 domain (human, UniProt O00499 520-593, biotin within the 15 amino acid AviTag peptide (enzymatic, in E. coli)); test: SPR; Biacore S200, Biotin CAPture chip; biotinylated Avi-BIN1-SH3 captured on flow cell 2, Avi-tagged CTX-M-14 β-lactamase on reference flow cell 1; peptides injected as analytes at 30 μl/min; 25 °C, 1X PBS-P+; steady-state analysis, 1:1 model; conditions: both partners purified
T2 construct: human BIN1 (bridging integrator 1), the C-terminal 81 amino acids that encompass the SH3 domain; 12 kDa by the methods; vector pAviBir, insert between BamHI and NotI; also called Avi-BSH3; AviBir-Bin1 SH3; source: E. coli BL21 (DE3), purified (HisTrap HP, Sephacryl S-200 gel filtration); not shown: AviTag, N-terminal, kept
T2 sequence (looked up): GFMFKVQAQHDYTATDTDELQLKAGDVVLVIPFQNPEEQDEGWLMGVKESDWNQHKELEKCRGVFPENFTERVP

[4] = biological target: T3, Avi-tagged BIN1 SH3 domain (human, UniProt O00499 520-593, biotin within the 15 amino acid AviTag peptide (enzymatic, in E. coli)); test: SPR
T3 chain: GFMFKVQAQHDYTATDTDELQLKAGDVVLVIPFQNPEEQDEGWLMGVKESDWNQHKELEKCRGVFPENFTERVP

[5] = biological target: T3, Avi-tagged BIN1 SH3 domain; test: SPR

Ac-KSPPPPP-NH2 (N-terminus and C-terminus assumed) [KSPPPPP]
binding to BIN1-SH3 in words (BIN1 SH3 domain): no binding within the range of tested analyte concentrations

p140Cap 14-mer peptide 1033-1046 with alanine substitution of the class I lysine and its corresponding prolines (from UniProt Q9C0H9 1033-1046)
Kd [1]: 21 µM

Ac-KPSKSPPAPPARAS-NH2 [KPSKSPPAPPARAS]
Kd (BIN1 SH3 domain): > 75 µM

Ac-PPPPPPR-NH2 (N-terminus and C-terminus assumed) [PPPPPPR]
binding to BIN1-SH3 in words (BIN1 SH3 domain): outside the range of tested analyte concentrations

BIN1 SH3 (from UniProt O00499)
Kd (nsP3 (Chikungunya virus)): 0.024 µM

p140Cap 14-mer peptide 1033-1046 with alanine substitution of the class I lysine (from UniProt Q9C0H9 1033-1046)
Kd [1]: 6.32 µM

Ac-KPSKSPAPPAPARS-NH2 [KPSKSPAPPAPARS]
Kd (BIN1 SH3 domain): > 75 µM

tau from mouse brain (from UniProt P10637-2 1-430) (natural protein)
fold less bound than to WT BIN1-SH3 [2]: 2 fold

Ac-ERSLVGFGPPVPAK-NH2 [p140Cap583-596]
Kd (BIN1 SH3 domain): > 75 µM

Ac-GYGFRLPPSSPQKL-NH2 [p140Cap498-512]
Kd (BIN1 SH3 domain): > 75 µM

p140Cap 14-mer peptide 1033-1046 with alanine substitution of the C-terminal arginine (class IIa) (from UniProt Q9C0H9 1033-1046)
Kd [1]: 26.3 µM

B1: p140Cap 14-mer peptide 1033-1046 (peptide)
peptide: Ac-KPSKSPPPPPPRRS-NH2
notes: also called p140Cap_(1033-1046); native 14-mer peptide; source: synthetic peptide (GenScript, reversed-phase HPLC, ≥95% purity)
Kd [3]: 7.7 µM

B2: p140Cap native class IIa 7-mer peptide (peptide)
peptide: PPPPPRR
notes: human p140Cap, class IIa PRM of the C-terminal proline-rich domain; source: synthetic peptide
Kd [3]: 31.7 µM

B3: tau 13-mer peptide 154-166 (peptide)
peptide: TPSLPTPPTREPK
notes: tau, proline-rich domain, class II PRM extended at both ends; The methods tell acetylation and amination of the ends only for the 14-residue peptides; also called tau_(154-166); 13-mer tau peptide; source: synthetic peptide
Kd [3]: 484 µM

B4: tau 6-mer peptide 158-163 (peptide)
peptide: PTPPTR
notes: tau, proline-rich domain, minimum consensus class II PRM; The methods tell acetylation and amination of the ends only for the 14-residue peptides; also called tau_(158-163); 6-mer tau peptide; source: synthetic peptide
Kd [3]: 288 µM

PPPPPPR [p140Cap native class IIb 7-mer peptide]
Kd [4]: > 75 µM

Ac-ERSLVGFGPPVPAK-NH2 [p140Cap 14-mer peptide 583-596]
Kd [5]: > 75 µM

B5: p140Cap from mouse brain (natural protein)
chain: MQPWQCLRRFALAWWERTAEGRARSPREEVGPRDPGGRGEPDPERSSPPMLSADDAEYPREYRTLGGGGGGGSGGRRFSNVGLVHTSERRHTVIAAQSLEALSGLQKADADRKRDAFMDHLKSKYPQHALALRGQQDRMREQVGGWTVDPVCLLSSLCSHLHGDSTPSGAGQPAQQPNYWSFKTRSSRHTQGAQPGLADQAAKLSYASAESLETMSEAELPLGFSRMNRFRQSLPLSRSASQTKLRSPGVLFLQFGEETRRVHITHEVSSLDTLHALIAHMFPQKLTMGMLKSPNTAILIKDEARNVFYELEDVRDIQDRSIIKIYRKEPLYAAFPGSHLTNGDLRREMVYASRESSPTRRLNNLSPASHLASSSPPPGLPSGLPSGLPSGSPSRSRLSYAGGRPPSYAGSPVHHAAERLGGAPTGQGVSPSPSAILERRDVKPDEDLAGKAGGMVLVKGEGLYADPYGLLHEGRLSLAAAAETHSHTRARAACTSGVPCALSAPTPLPRCSPTWRTRCTRRALAALYGDGYGFRLPPSSPQKLADVSAPSGGPPPPHSPYSGPPSRGSPVRQSFRKDSGSSSVFAESPGGKARSTGSASTAGAPPSELFPGPGERSLVGFGPPVPAKDTETRERMEAMEKQIASLTGLVQSALLRGSEPETPSEKVEGSNGAATPSAPVCGSGSKSSGATPVSGPPPPSASSTPAGQPTAVSRLQMQLHLRGLQNSASDLRGQLQQLRNVQLQNQESVRALLKPTEADVSMRVSEAARRQEDPLQRQRTLVEEERLRYLNDEELITQQLNDLEKSVEKIQRDVAHNHRLMPGPELEEKALVLKQLGETLTELKAHFPGLQSKMRVVLRVEVEAVKFLKEEPQRLDGLLKRCRGVTDTLAQIRRQVDEGMWPPPNNLLNQSPKKVAAETDFSKGLDFEIPPPSPPLNLHELSGPAEGTPLTPKSTNPTKCLDASSKRNTDKAVSVEAAERDWEEKRAALTQYSAKDINRLLEETQAELLKAIPDLDCASKTHPGPAPTPDHKPPKAPHGQKAAPRTEPSGRRGSDELTVPRYRTEKPSKSPPPPPPRRSFPSSHGLTTTRTGEVVVTSKKDSVFIKKAESEELEVQKPQVKLRRAVSEVVRPASTPPIMASAIKDEDDEERIIAELESGGSSVPPMKVVTPGASRLKAAQGPAGSPDKGKHGKQRTEYMRIQAQQQATKPSKEVSGPNETSSPGSEKPSGSRTSIPVLTSFGARNSSISF
fold less bound than to WT BIN1-SH3 [2]: 2.6 fold

Ac-KPSKSPPAPPARAS-NH2
Kd [3]: > 75 µM

Ac-GYGFRLPPSSPQKL-NH2 [p140Cap 14-mer peptide 498-512]
Kd [5]: > 75 µM

KSPPPPP [p140Cap native class I 7-mer peptide]
Kd [4]: > 75 µM

Ac-KPSKSPPPPPPARS-NH2 [p140Cap 14-mer peptide 1033-1046 with alanine substitution of the N-terminal arginine (class IIb)]
Kd [4]: > 75 µM
